These results are taken from patent US20250282857A1, “TGF-BETA INHIBITORS AND USE THEREOF” (SCHOLAR ROCK, INC., priority 2021, published 2025).

The target in assay [1] is Matrix-associated proTGFβ1 complexes (hLTBP1-proTGFβ1 and hLTBP3-proTGFβ1). Put plainly: BLI (Octet).
Assay [2] addresses Cell-associated proTGFβ1 complexes (hGARP-proTGFβ1 and hLRRC33-proTGFβ1). Briefly: BLI (Octet). In general terms: BLI is a label-free optical method that tracks binding on a fibre tip over time.
Assay [3] has as its target Matrix-associated proTGFβ1 complexes (hLTBP1-proTGFβ1 and hLTBP3-proTGFβ1). Briefly: MSD-SET, hIgG4.
The target in assay [4] is Cell-associated proTGFβ1 complexes (hGARP-proTGFβ1 and hLRRC33-proTGFβ1). Put plainly: MSD-SET, hIgG4.
Assay [5] deals with matrix-associated vs cell-associated proTGFβ1 complexes. Briefly: MSD-SET: fold bias, cell average over matrix average. The assay is classed as binding, human. The conditions noted are these: ratio of average KD. An excerpt:
Column (A) of the table lists monoclonal antibodies with discrete amino acid sequences. […] Columns (B), (D), (E) and (F) provide affinities of each of the listed antibodies, measured in KD. […] Average KD values of (B) and (C) are shown in the corresponding column (D), which collectively represents affinities of the antibodies to ECM- or matrix-associated proTGFβ1 complexes. Similarly, Average KD values of (E) and (F) are shown in the corresponding column (G), which collectively represents affinities of the antibodies to cell-surface or cell-associated proTGFβ1 complexes. Finally, relative ratios between the average KD values from columns (D) and (G) are expressed as “fold bias” in column (H). Thus, the greater the number of column (H) is, the greater bias exists for the particular antibody, when comparing binding preferences of the antibody for matrix-associated complexes and cell-surface complexes. This is one way of quantitatively representing and comparing inherent bias of antibodies to their target complexes. Such analyses may be useful in guiding the selection process for a candidate antibody for particular therapeutic use.
Solution equilibrium titration (“SET”) is an assay whereby binding between two molecules (such as an antigen and an antibody that binds the antigen) can be measured at equilibrium in a solution. […]

B1: Ab21 (antibody, V domains shown)
VH: EVQLVESGGGLVQPGGSLRLSCAASGFTFSSFSMDWVRQAPGKGLEWVSYISPDASTIYYADSVKGRFTISRDNAKNSLYLQMNSLRAEDTAVYYCARGVLDYGDMLDPWGQGTLVTVSS
VL: DIQMTQSPSSLSASVGDRVTITCQASQDITNYLNWYQQKPGKAPKLLIYDASNLETGVPSRFSGSGSGTDFTFTISSLQPEDIATYYCQQADNHPPWTFGGGTKVEIK
As for B1, the ECM AVRG (average KD, hLTBP1 and hLTBP3 complexes) in assay [1] was 0.246 nM. The Cell AVRG (average KD, hGARP and hLRRC33 complexes) in assay [2] was found to be 0.644 nM.

B2: Ab28 (antibody, V domains shown)
VH: EVQLVESGGGLVQPGGSLRLSCAASGFTFSSFSMDWVRQAPGKGLEWVSYISPDASTIYYADSVKGRFTISRDNAKNSLYLQMNSLRAEDTAVYYCVRGVLDYGDMLDPWGQGTLVTVSS
VL: DIQMTQSPSSLSASVGDRVTITCQASQDITNYLNWYQQKPGKAPKLLIYDASNLETGVPSRFSGSGSGTDFTFTISSLQPEDIATYYCQQADNHPPWTFGGGTKVEIK
In assay [1], B2 yielded an ECM AVRG (average KD, hLTBP1 and hLTBP3 complexes) of 0.328 nM. This molecule also came in with a Cell AVRG (average KD, hGARP and hLRRC33 complexes) in assay [2] of 0.603 nM.

B3: Ab23 (antibody, V domains shown)
VH: EVQLVESGGGLVQPGGSLRLSCAASGFTFSSFSMNWVRQAPGKGLEWVSYISPSADTIYYADSVKGRFTISRDNAKNTLYLQMNSLRAEDTAVYYCARGVLDYGDMLDPWGQGTLVTVSS
VL: DIQMTQSPSSLSASVGDRVTITCQASQDITNYLNWYQQKPGKAPKLLIYDASNLETGVPSRFSGSGSGTDFTFTISSLQPEDIATYYCQQADNHPPWTFGGGTKVEIK
The molecule B3 registered an ECM AVRG (average KD, hLTBP1 and hLTBP3 complexes) in assay [1] of 0.443 nM. For the same molecule, the Cell AVRG (average KD, hGARP and hLRRC33 complexes) in assay [2] was found to be 0.897 nM.

B4: Ab31 (antibody, IgG4, V domains shown)
VH: EVQLVESGGGLVQPGGSLRLSCAASGFTFSSFSMDWVRQAPGKGLEWVSYISPDASTIYYADSVKGRFTISRDNAKNTLYLQMNSLRAEDTAVYYCARAVLDYGDMLDPWGQGTLVTVSS
VL: DIQMTQSPSSLSASVGDRVTITCQASQDITNYLNWYQQKPGKAPKLLIYDASNLETGVPSRFSGSGSGTDFTFTISSLQPEDIATYYCQQADNHPPWTFGGGTKVEIK
With B4, the ECM AVRG (average KD, hLTBP1 and hLTBP3 complexes) in assay [1] was found to be 0.208 nM; in assay [3] it was 0.017 nM. Besides, the Cell AVRG (average KD, hGARP and hLRRC33 complexes) in assay [2] came out at 0.495 nM; in assay [4], 0.058 nM.

B5: Ab24 (antibody, IgG4, V domains shown)
VH: EVQLVESGGGLVQPGRSLRLSCAASGFTFSSFAMYWVRQAPGKGLEWVSYISPDASTIYYADSVKGRFTISRDNAKNSLYLQMNSLRAEDTAVYYCARGVLDYGDMLDPWGQGTLVTVSS
VL: DIQMTQSPSSLSASVGDRVTITCQASQDITNYLNWYQQKPGKAPKLLIYDASNLETGVPSRFSGSGSGTDFTFTISSLQPEDIATYYCQQADNHPPWTFGGGTKVEIK
On to B5, for which the ECM AVRG (average KD, hLTBP1 and hLTBP3 complexes) in assay [1] stood at 0.222 nM; in assay [3], 0.023 nM. Also, the values for the Cell AVRG (average KD, hGARP and hLRRC33 complexes) in assay [2] and in assay [4] were 0.537 nM and 0.1 nM, respectively.

B6: Ab32 (antibody, IgG4, V domains shown)
VH: EVQLVESGGGLVQPGGSLRLSCAASGFTFSSFSMNWVRQAPGKGLEWVSYISPSADTIYYADSVKGRFTISRDNAKNTLYLQMNSLRAEDTAVYYCARGVWDMGDMLDPWGQGTLVTVSS
VL: DIQMTQSPSSLSASVGDRVTITCQASQDITNYLNWYQQKPGKAPKLLIYDASNLETGVPSRFSGSGSGTDFTFTISSLQPEDIATYYCQQADNHPPWTFGGGTKVEIK
Turning to B6, the ECM AVRG (average KD, hLTBP1 and hLTBP3 complexes) in assay [1] worked out at 0.242 nM; in assay [3], 0.032 nM. Further, the Cell AVRG (average KD, hGARP and hLRRC33 complexes) in assay [2] turned out to be 0.597 nM; in assay [4], 0.051 nM.

B7: Ab27 (antibody, V domains shown)
VH: EVQLVESGGGLVQPGGSLRLSCAASGFTFSFYAMNWVRQAPGKGLEWVSYISPDASTIYYADSVKGRFTISRDNAKNSLYLQMNSLRAEDTAVYYCARGVLDYGDMLDPWGQGTLVTVSS
VL: DIQMTQSPSSLSASVGDRVTITCQASQDITNYLNWYQQKPGKAPKLLIYDASNLETGVPSRFSGSGSGTDFTFTISSLQPEDIATYYCQQADNHPPWTFGGGTKVEIK
As for B7, the ECM AVRG (average KD, hLTBP1 and hLTBP3 complexes) in assay [1] was 0.208 nM. Also, the Cell AVRG (average KD, hGARP and hLRRC33 complexes) in assay [2] came to 0.361 nM.

B8: Ab22 (antibody, IgG4, V domains shown)
VH: EVQLVESGGGLVQPGGSLRLSCAASGFTFGSFSMNWVRQAPGKGLEWVSYIHSDASTIYYADSVKGRFTISRDNAKNSLYLQMNSLRAEDTAVYYCARGVLDYGDMLDPWGQGTLVTVSS
VL: DIQMTQSPSSLSASVGDRVTITCQASQDITNYLNWYQQKPGKAPKLLIYDASNLETGVPSRFSGSGSGTDFTFTISSLQPEDIATYYCQQADNHPPWTFGGGTKVEIK
Regarding B8, the ECM AVRG (average KD, hLTBP1 and hLTBP3 complexes) was 0.324 nM in assay [1] and 0.042 nM in assay [3]. The figures for the Cell AVRG (average KD, hGARP and hLRRC33 complexes) in assay [2] and in assay [4] were 0.695 nM and 0.114 nM, respectively.

B9: Ab4 (antibody, IgG4, V domains shown)
VH: EVQLVESGGGLVQPGGSLRLSCAASGFTFSSYSMNWVRQAPGKGLEWVSYISSSSSTIYYADSVKGRFTISRDNAKNSLYLQMNSLRAEDTAVYYCARGVLDYGDMLDPWGQGTLVTVSS
VL: DIQMTQSPSSLSASVGDRVTITCQASQDITNYLNWYQQKPGKAPKLLIYDASNLETGVPSRFSGSGSGTDFTFTISSLQPEDIATYYCQQADNHPPWTFGGGTKVEIK
In the case of B9, the “(H) G/D (fold bias)” value in assay [5] is 0.42 fold. Moreover, the ECM AVRG (average KD, hLTBP1 and hLTBP3 complexes) in assay [3] is 5.05 nM. The molecule further gave a Cell AVRG (average KD, hGARP and hLRRC33 complexes) in assay [4] of 2.3 nM.

B10: Ab25 (antibody, V domains shown)
VH: EVQLVESGGGLVQPGGSLRLSCAASGFTFGSFSMDWVRQAPGKGLEWVSYISPDASTIYYADSVKGRFTISRDNAKNSLYLQMNSLRAEDTAVYYCARGVLDYGDMLDPWGQGTLVTVSS
VL: DIQMTQSPSSLSASVGDRVTITCQASQDITNYLNWYQQKPGKAPKLLIYDASNLETGVPSRFSGSGSGTDFTFTISSLQPEDIATYYCQQADNHPPWTFGGGTKVEIK
B10 displayed an ECM AVRG (average KD, hLTBP1 and hLTBP3 complexes) in assay [1] of 0.184 nM. In assay [2], this molecule had a Cell AVRG (average KD, hGARP and hLRRC33 complexes) of 0.449 nM.

B11: Ab26 (antibody, IgG4, V domains shown)
VH: EVQLVESGGGLVQPGGSLRLSCAASGFTFSSFSMDWVRQAPGKGLEWVSYISPDASTIYYADSVKGRFTISRDNAKNTLYLQMNSLRAEDTAVYYCARGVLDYGDMLDPWGQGTLVTVSS
VL: DIQMTQSPSSLSASVGDRVTITCQASQDITNYLNWYQQKPGKAPKLLIYDASNLETGVPSRFSGSGSGTDFTFTISSLQPEDIATYYCQQADNHPPWTFGGGTKVEIK
For the molecule B11, the ECM AVRG (average KD, hLTBP1 and hLTBP3 complexes) in assay [1] was determined as 0.197 nM; in assay [3], 0.026 nM. Further, the Cell AVRG (average KD, hGARP and hLRRC33 complexes) in assay [2] turned out to be 0.492 nM; in assay [4], 0.072 nM.

B12: Ab30 (antibody, IgG4, V domains shown)
VH: EVQLVESGGGLVQPGGSLRLSCAASGFTFSSFSMDWVRQAPGKGLEWVSYISPDASTIYYADSVKGRFTISRDNAKNSLYLQMNSLRAEDTAVYYCARGTLDYGDMLDPWGQGTLVTVSS
VL: DIQMTQSPSSLSASVGDRVTITCQASQDITNYLNWYQQKPGKAPKLLIYDASNLETGVPSRFSGSGSGTDFTFTISSLQPEDIATYYCQQADNHPPWTFGGGTKVEIK
In the case of B12, the figures for the ECM AVRG (average KD, hLTBP1 and hLTBP3 complexes) in assay [1] and in assay [3] were 0.296 nM and 0.029 nM, respectively. The Cell AVRG (average KD, hGARP and hLRRC33 complexes) in assay [2] came out at 0.684 nM; in assay [4], 0.081 nM.

B13: Ab33 (antibody, IgG4, V domains shown)
VH: EVQLVESGGGLVQPGGSLRLSCAASGFTFSSFSMNWVRQAPGKGLEWVSYISPSADTIYYADSVKGRFTISRDNAKNTLYLQMNSLRAEDTAVYYCAHGVLDYGDMLDPWGQGTLVTVSS
VL: DIQMTQSPSSLSASVGDRVTITCQASQDITNYLNWYQQKPGKAPKLLIYDASNLETGVPSRFSGSGSGTDFTFTISSLQPEDIATYYCQQADNHPPWTFGGGTKVEIK
Consider B13, for which the ECM AVRG (average KD, hLTBP1 and hLTBP3 complexes) in assay [1] is 0.145 nM; in assay [3], 0.009 nM. In addition, the Cell AVRG (average KD, hGARP and hLRRC33 complexes) in assay [2] amounted to 0.302 nM; in assay [4], 0.027 nM.

B14: Ab29 (antibody, IgG4, V domains shown)
VH: EVQLVESGGGLVQPGRSLRLSCAASGFTFSSFAMNWVRQAPGKGLEWVSYISPDASTIYYAGSVKGRFTISRDNAKNSLYLQMNSLRAEDTAVYYCVRAVLDYGDMLDPWGQGTLVTVSS
VL: DIQMTQSPSSLSASVGDRVTITCQASQDITNYLNWYQQKPGKAPKLLIYDASNLETGVPSRFSGSGSGTDFTFTISSLQPEDIATYYCQQADNHPPWTFGGGTKVEIK
Take B14: the figures for the ECM AVRG (average KD, hLTBP1 and hLTBP3 complexes) in assay [1] and in assay [3] were 0.155 nM and 0.012 nM, respectively. Moreover, the Cell AVRG (average KD, hGARP and hLRRC33 complexes) in assay [2] came to 0.304 nM; in assay [4] it was 0.024 nM.
